According to article PMC9482650, “Quantitative fragmentomics allow affinity mapping of interactomes” (Nature Communications, 2022):

T1: ARHGEF11, O15085
T1 sequence (O15085 42-136, limits assumed, looked up): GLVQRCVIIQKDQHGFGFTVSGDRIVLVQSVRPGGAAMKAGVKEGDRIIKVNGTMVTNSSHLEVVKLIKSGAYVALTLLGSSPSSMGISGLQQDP

T2: GRIP1_5, Q9Y3R0
T2 sequence (Q9Y3R0 568-668, limits assumed, looked up): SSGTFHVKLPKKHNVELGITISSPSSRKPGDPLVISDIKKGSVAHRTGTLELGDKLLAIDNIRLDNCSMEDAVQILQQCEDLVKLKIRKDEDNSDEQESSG

T3: GRIP1_7, Q9Y3R0
T3 sequence (Q9Y3R0 999-1096, limits assumed, looked up): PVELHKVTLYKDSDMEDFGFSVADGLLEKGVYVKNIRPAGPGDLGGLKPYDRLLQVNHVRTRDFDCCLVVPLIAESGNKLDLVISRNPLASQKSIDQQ

T4: LIN7A, O14910
T4 sequence (O14910 103-200, limits assumed, looked up): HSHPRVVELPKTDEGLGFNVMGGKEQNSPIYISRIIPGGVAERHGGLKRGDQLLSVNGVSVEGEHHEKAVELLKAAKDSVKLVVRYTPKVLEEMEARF

T5: MPP6, Q9NZW5
T5 sequence (Q9NZW5 125-219, limits assumed, looked up): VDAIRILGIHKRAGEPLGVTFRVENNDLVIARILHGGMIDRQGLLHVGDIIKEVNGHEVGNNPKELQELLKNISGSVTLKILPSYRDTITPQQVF

T6: MPP7, Q5T2T1
T6 sequence (Q5T2T1 134-230, limits assumed, looked up): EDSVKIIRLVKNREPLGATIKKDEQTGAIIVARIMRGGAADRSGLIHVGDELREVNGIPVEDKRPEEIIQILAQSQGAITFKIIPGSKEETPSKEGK

T7: PCLO, Q9Y6V0
T7 sequence (Q9Y6V0 4491-4600, limits assumed, looked up): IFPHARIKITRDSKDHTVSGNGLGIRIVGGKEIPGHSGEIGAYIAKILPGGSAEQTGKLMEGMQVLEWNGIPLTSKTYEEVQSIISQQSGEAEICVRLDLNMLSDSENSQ

T8: PDZRN3_1, Q9UPQ7
T8 sequence (Q9UPQ7 244-349, limits assumed, looked up): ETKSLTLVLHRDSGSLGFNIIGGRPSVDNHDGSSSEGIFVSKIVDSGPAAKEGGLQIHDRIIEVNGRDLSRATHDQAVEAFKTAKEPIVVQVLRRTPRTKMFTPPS

T9: PTPN13_1, Q12923
T9 sequence (Q12923 1088-1188, limits assumed, looked up): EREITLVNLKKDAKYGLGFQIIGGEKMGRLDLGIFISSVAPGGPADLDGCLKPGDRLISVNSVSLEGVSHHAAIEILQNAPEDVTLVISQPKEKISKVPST

T10: SYNJ2BP, P57105
T10 sequence (P57105 8-110, limits assumed, looked up): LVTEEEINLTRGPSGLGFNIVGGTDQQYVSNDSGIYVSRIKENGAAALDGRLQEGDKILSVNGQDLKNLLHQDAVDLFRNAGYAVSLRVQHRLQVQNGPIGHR

B1: GRK6, P43250 (peptide)
chain: DSEEELPTRL
B2: GRM5, P41594 (peptide)
chain: RDYTQSSSSL
B3: TRPM1, Q7Z4N2 (peptide)
chain: KEKASTETEC
B4: POLR1D, P0DPB6 (peptide)
chain: QKASRNESTF
B5: SDC3, O75056 (peptide)
chain: KPDKQEEFYA

target: AHNAK1, Q09666; assay: holdup assay; set-up: key: below the threshold = too weak to quantify, mostly under pKd 3.1 to 4; conditions: plain residues with an end cap or a label only (N-terminal biotin on a linker: ado-ado)
Sequence (Q09666 4-100): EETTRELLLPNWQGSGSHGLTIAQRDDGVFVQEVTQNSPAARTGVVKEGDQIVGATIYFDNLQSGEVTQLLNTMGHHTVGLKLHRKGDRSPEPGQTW

Row | pKd | Binder
1 | below the threshold | B1
2 | below the threshold | B2
3 | below the threshold | B3
4 | below the threshold | B4
5 | below the threshold | B5

target: T1, ARHGEF11, O15085; assay: holdup assay; set-up: key: below the threshold = too weak to quantify, mostly under pKd 3.1 to 4; conditions: plain residues with an end cap or a label only (N-terminal biotin on a linker: ado-ado)

Row | pKd | Binder
6 | 3.78 | B1
7 | 3.79 | B2
8 | below the threshold | B3
9 | below the threshold | B4
10 | below the threshold | B5

target: DLG4_2, P78352; assay: holdup assay; set-up: key: below the threshold = too weak to quantify, mostly under pKd 3.1 to 4; conditions: plain residues with an end cap or a label only (N-terminal biotin on a linker: ado-ado)
Sequence (P78352 155-259): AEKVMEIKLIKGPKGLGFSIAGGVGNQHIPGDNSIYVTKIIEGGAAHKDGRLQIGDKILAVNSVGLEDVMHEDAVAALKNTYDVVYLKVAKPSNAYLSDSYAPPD

Row | pKd | Binder
11 | below the threshold | B1
12 | below the threshold | B2
13 | 3.9 | B3
14 | below the threshold | B4
15 | below the threshold | B5

target: FRMPD2_1, Q68DX3; assay: holdup assay; set-up: key: below the threshold = too weak to quantify, mostly under pKd 3.1 to 4; conditions: plain residues with an end cap or a label only (N-terminal biotin on a linker: ado-ado)
Sequence (Q68DX3 770-861): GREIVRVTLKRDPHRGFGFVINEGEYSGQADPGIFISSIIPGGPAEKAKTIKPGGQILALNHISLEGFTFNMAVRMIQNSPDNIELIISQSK

Row | pKd | Binder
16 | below the threshold | B1
17 | below the threshold | B2
18 | below the threshold | B3
19 | below the threshold | B4
20 | below the threshold | B5

target: GIPC2, Q8TF65; assay: holdup assay; set-up: key: below the threshold = too weak to quantify, mostly under pKd 3.1 to 4; conditions: plain residues with an end cap or a label only (N-terminal biotin on a linker: ado-ado)
Sequence (Q8TF65 112-203): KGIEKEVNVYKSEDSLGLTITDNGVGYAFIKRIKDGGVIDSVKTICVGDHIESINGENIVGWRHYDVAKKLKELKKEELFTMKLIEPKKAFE

Row | pKd | Binder
21 | 3.65 | B1
22 | below the threshold | B2
23 | 4.1 | B3
24 | below the threshold | B4
25 | below the threshold | B5

target: GRASP, Q7Z6J2; assay: holdup assay; set-up: key: below the threshold = too weak to quantify, mostly under pKd 3.1 to 4; conditions: plain residues with an end cap or a label only (N-terminal biotin on a linker: ado-ado)
Sequence (Q7Z6J2 96-193): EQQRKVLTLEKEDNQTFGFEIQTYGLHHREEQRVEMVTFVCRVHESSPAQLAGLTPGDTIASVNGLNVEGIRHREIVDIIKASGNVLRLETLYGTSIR

Row | pKd | Binder
26 | 4.16 | B1
27 | 4.33 | B2
28 | below the threshold | B3
29 | below the threshold | B4
30 | below the threshold | B5

target: GRID2IP_1, A4D2P6; assay: holdup assay; set-up: key: below the threshold = too weak to quantify, mostly under pKd 3.1 to 4; conditions: plain residues with an end cap or a label only (N-terminal biotin on a linker: ado-ado)
Sequence (A4D2P6 1-87): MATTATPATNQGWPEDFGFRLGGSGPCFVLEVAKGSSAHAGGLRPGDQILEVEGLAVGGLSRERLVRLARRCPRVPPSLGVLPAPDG

Row | pKd | Binder
31 | below the threshold | B1
32 | below the threshold | B2
33 | below the threshold | B3
34 | below the threshold | B4
35 | below the threshold | B5

target: T2, GRIP1_5, Q9Y3R0; assay: holdup assay; set-up: key: below the threshold = too weak to quantify, mostly under pKd 3.1 to 4; conditions: plain residues with an end cap or a label only (N-terminal biotin on a linker: ado-ado)

Row | pKd | Binder
36 | below the threshold | B1
37 | below the threshold | B2
38 | below the threshold | B3
39 | below the threshold | B4
40 | below the threshold | B5

target: T3, GRIP1_7, Q9Y3R0; assay: holdup assay; set-up: key: below the threshold = too weak to quantify, mostly under pKd 3.1 to 4; conditions: plain residues with an end cap or a label only (N-terminal biotin on a linker: ado-ado)

Row | pKd | Binder
41 | below the threshold | B1
42 | below the threshold | B2
43 | below the threshold | B3
44 | below the threshold | B4
45 | below the threshold | B5

target: GRIP2_3, Q9C0E4; assay: holdup assay; set-up: key: below the threshold = too weak to quantify, mostly under pKd 3.1 to 4; conditions: plain residues with an end cap or a label only (N-terminal biotin on a linker: ado-ado)
Sequence (Q9C0E4 238-339): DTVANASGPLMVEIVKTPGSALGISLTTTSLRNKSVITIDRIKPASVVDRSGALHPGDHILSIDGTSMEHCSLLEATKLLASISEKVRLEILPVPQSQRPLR

Row | pKd | Binder
46 | below the threshold | B1
47 | below the threshold | B2
48 | below the threshold | B3
49 | below the threshold | B4
50 | below the threshold | B5

target: GRIP2_6, Q9C0E4; assay: holdup assay; set-up: key: below the threshold = too weak to quantify, mostly under pKd 3.1 to 4; conditions: plain residues with an end cap or a label only (N-terminal biotin on a linker: ado-ado)
Sequence (Q9C0E4 648-740): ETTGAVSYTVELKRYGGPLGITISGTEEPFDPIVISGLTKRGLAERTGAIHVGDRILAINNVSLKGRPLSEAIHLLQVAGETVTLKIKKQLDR

Row | pKd | Binder
51 | below the threshold | B1
52 | below the threshold | B2
53 | below the threshold | B3
54 | below the threshold | B4
55 | below the threshold | B5

target: HTRA1, Q92743; assay: holdup assay; set-up: key: below the threshold = too weak to quantify, mostly under pKd 3.1 to 4; conditions: plain residues with an end cap or a label only (N-terminal biotin on a linker: ado-ado)
Sequence (Q92743 360-477): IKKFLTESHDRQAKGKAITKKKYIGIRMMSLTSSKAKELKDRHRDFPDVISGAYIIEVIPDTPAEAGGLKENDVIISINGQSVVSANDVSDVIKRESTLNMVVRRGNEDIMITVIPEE

Row | pKd | Binder
56 | 4.18 | B1
57 | below the threshold | B2
58 | 3.62 | B3
59 | below the threshold | B4
60 | 4.9 | B5

target: Inadl_4, Q8NI35; assay: holdup assay; set-up: key: below the threshold = too weak to quantify, mostly under pKd 3.1 to 4; conditions: plain residues with an end cap or a label only (N-terminal biotin on a linker: ado-ado)
Sequence (Q8NI35 547-651): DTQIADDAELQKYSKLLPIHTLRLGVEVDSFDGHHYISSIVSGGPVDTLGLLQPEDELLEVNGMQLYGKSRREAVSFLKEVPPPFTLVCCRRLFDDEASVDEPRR

Row | pKd | Binder
61 | below the threshold | B1
62 | below the threshold | B2
63 | below the threshold | B3
64 | below the threshold | B4
65 | below the threshold | B5

target: T4, LIN7A, O14910; assay: holdup assay; set-up: key: below the threshold = too weak to quantify, mostly under pKd 3.1 to 4; conditions: plain residues with an end cap or a label only (N-terminal biotin on a linker: ado-ado)

Row | pKd | Binder
66 | below the threshold | B1
67 | below the threshold | B2
68 | below the threshold | B3
69 | below the threshold | B4
70 | below the threshold | B5

target: MAGI1_1, Q96QZ7; assay: holdup assay; set-up: key: below the threshold = too weak to quantify, mostly under pKd 3.1 to 4; conditions: plain residues with an end cap or a label only (N-terminal biotin on a linker: ado-ado)
Sequence (Q96QZ7 1-106): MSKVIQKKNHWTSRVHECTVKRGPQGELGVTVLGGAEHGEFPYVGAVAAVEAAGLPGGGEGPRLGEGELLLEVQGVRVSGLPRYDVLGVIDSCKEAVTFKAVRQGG

Row | pKd | Binder
71 | below the threshold | B1
72 | below the threshold | B2
73 | below the threshold | B3
74 | below the threshold | B4
75 | below the threshold | B5

target: MAGI1_2, Q96QZ7; assay: holdup assay; set-up: key: below the threshold = too weak to quantify, mostly under pKd 3.1 to 4; conditions: plain residues with an end cap or a label only (N-terminal biotin on a linker: ado-ado)
Sequence (Q96QZ7 456-580): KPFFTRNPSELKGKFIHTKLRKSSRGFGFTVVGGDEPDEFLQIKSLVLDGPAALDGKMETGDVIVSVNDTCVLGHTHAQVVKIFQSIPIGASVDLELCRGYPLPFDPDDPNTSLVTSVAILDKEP

Row | pKd | Binder
76 | below the threshold | B1
77 | below the threshold | B2
78 | below the threshold | B3
79 | below the threshold | B4
80 | below the threshold | B5

target: MAGI2_3, Q86UL8; assay: holdup assay; set-up: key: below the threshold = too weak to quantify, mostly under pKd 3.1 to 4; conditions: plain residues with an end cap or a label only (N-terminal biotin on a linker: ado-ado)
Sequence (Q86UL8 600-682): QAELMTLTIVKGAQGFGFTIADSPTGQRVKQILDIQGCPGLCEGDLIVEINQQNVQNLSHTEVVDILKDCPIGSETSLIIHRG

Row | pKd | Binder
81 | below the threshold | B1
82 | below the threshold | B2
83 | below the threshold | B3
84 | below the threshold | B4
85 | below the threshold | B5

target: MAGI2_5, Q86UL8; assay: holdup assay; set-up: key: below the threshold = too weak to quantify, mostly under pKd 3.1 to 4; conditions: plain residues with an end cap or a label only (N-terminal biotin on a linker: ado-ado)
Sequence (Q86UL8 915-1017): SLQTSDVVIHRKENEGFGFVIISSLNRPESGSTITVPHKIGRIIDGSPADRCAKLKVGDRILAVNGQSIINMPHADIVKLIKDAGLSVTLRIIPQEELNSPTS

Row | pKd | Binder
86 | below the threshold | B1
87 | below the threshold | B2
88 | below the threshold | B3
89 | below the threshold | B4
90 | below the threshold | B5

target: MAST2, Q6P0Q8; assay: holdup assay; set-up: key: below the threshold = too weak to quantify, mostly under pKd 3.1 to 4; conditions: plain residues with an end cap or a label only (N-terminal biotin on a linker: ado-ado)
Sequence (Q6P0Q8 1099-1202): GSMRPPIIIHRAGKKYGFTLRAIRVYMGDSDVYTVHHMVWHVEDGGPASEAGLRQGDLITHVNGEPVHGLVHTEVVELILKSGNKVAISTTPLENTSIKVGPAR

Row | pKd | Binder
91 | 4.83 | B1
92 | 5.15 | B2
93 | 4.78 | B3
94 | 4.95 | B4
95 | 4.17 | B5

target: T5, MPP6, Q9NZW5; assay: holdup assay; set-up: key: below the threshold = too weak to quantify, mostly under pKd 3.1 to 4; conditions: plain residues with an end cap or a label only (N-terminal biotin on a linker: ado-ado)

Row | pKd | Binder
96 | below the threshold | B1
97 | below the threshold | B2
98 | below the threshold | B3
99 | below the threshold | B4
100 | 3.77 | B5

target: T6, MPP7, Q5T2T1; assay: holdup assay; set-up: key: below the threshold = too weak to quantify, mostly under pKd 3.1 to 4; conditions: plain residues with an end cap or a label only (N-terminal biotin on a linker: ado-ado)

Row | pKd | Binder
101 | below the threshold | B1
102 | below the threshold | B2
103 | below the threshold | B3
104 | below the threshold | B4
105 | below the threshold | B5

target: NHERF4_2, Q86UT5; assay: holdup assay; set-up: key: below the threshold = too weak to quantify, mostly under pKd 3.1 to 4; conditions: plain residues with an end cap or a label only (N-terminal biotin on a linker: ado-ado)
Sequence (Q86UT5 220-308): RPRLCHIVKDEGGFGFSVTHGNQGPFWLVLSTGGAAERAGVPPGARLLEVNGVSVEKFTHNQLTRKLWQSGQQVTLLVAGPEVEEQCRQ

Row | pKd | Binder
106 | below the threshold | B1
107 | below the threshold | B2
108 | below the threshold | B3
109 | below the threshold | B4
110 | below the threshold | B5

target: T7, PCLO, Q9Y6V0; assay: holdup assay; set-up: key: below the threshold = too weak to quantify, mostly under pKd 3.1 to 4; conditions: plain residues with an end cap or a label only (N-terminal biotin on a linker: ado-ado)

Row | pKd | Binder
111 | below the threshold | B1
112 | below the threshold | B2
113 | below the threshold | B3
114 | below the threshold | B4
115 | below the threshold | B5

target: T8, PDZRN3_1, Q9UPQ7; assay: holdup assay; set-up: key: below the threshold = too weak to quantify, mostly under pKd 3.1 to 4; conditions: plain residues with an end cap or a label only (N-terminal biotin on a linker: ado-ado)

Row | pKd | Binder
116 | below the threshold | B1
117 | 3.56 | B2
118 | below the threshold | B3
119 | below the threshold | B4
120 | below the threshold | B5

target: T9, PTPN13_1, Q12923; assay: holdup assay; set-up: key: below the threshold = too weak to quantify, mostly under pKd 3.1 to 4; conditions: plain residues with an end cap or a label only (N-terminal biotin on a linker: ado-ado)

Row | pKd | Binder
121 | below the threshold | B1
122 | below the threshold | B2
123 | below the threshold | B3
124 | below the threshold | B4
125 | below the threshold | B5

target: SCRIB_2, Q14160; assay: holdup assay; set-up: key: below the threshold = too weak to quantify, mostly under pKd 3.1 to 4; conditions: plain residues with an end cap or a label only (N-terminal biotin on a linker: ado-ado)
Sequence (Q14160 857-960): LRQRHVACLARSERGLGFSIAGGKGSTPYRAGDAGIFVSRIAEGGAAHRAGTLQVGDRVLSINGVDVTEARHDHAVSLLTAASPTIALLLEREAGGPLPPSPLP

Row | pKd | Binder
126 | below the threshold | B1
127 | below the threshold | B2
128 | 3.52 | B3
129 | below the threshold | B4
130 | below the threshold | B5

target: T10, SYNJ2BP, P57105; assay: holdup assay; set-up: key: below the threshold = too weak to quantify, mostly under pKd 3.1 to 4; conditions: plain residues with an end cap or a label only (N-terminal biotin on a linker: ado-ado)

Row | pKd | Binder
131 | 3.5 | B1
132 | 3.82 | B2
133 | 3.83 | B3
134 | below the threshold | B4
135 | below the threshold | B5
